Source: article PMC11773018

Legend:
[1] = target: human factor H (human) (UniProt P08603); test: SPR; human FH conjugated to a CM5 chip; untreated (PBS) untagged CspZ at one concentration (2 uM in methods and legend, 1 uM in the table's footnote) flowed in PBS at 100 ul/min, 25 C, Biacore T200, 1:1 Langmuir model
[2] = target: human factor H (human) (UniProt P08603); test: SPR; human FH conjugated to a CM5 chip; untagged CspZ treated with 100 uM EDTA and dialysed against PBS, one concentration (2 uM in methods and legend, 1 uM in the table's footnote), flow rate 30 ul/min, 25 C, Biacore T200, 1:1 Langmuir model
[3] = target: human complement factor H (human) (UniProt P08603); test: SPR; human FH conjugated to a CM5 chip; untagged CspZ treated with 100 μM EDTA and dialysed against PBS, flowed in EDTA-treated PBS (100 μM) at 10 μl/min, 25 °C; 1:1 Langmuir model
[4] = target: human factor H (human) (UniProt P08603); test: SPR; human FH conjugated to a CM5 chip; untreated (PBS) untagged CspZ at one concentration (2 uM in methods and legend, 1 uM in the table's footnote) flowed in PBS at 30 ul/min, 25 C, Biacore T200, 1:1 Langmuir model
[5] = target: human factor H (human) (UniProt P08603); test: SPR; human FH conjugated to a CM5 chip; untreated (PBS) untagged CspZ at one concentration (2 uM in methods and legend, 1 uM in the table's footnote) flowed in PBS at 10 ul/min, 25 C, Biacore T200, 1:1 Langmuir model
[6] = target: human factor H (human) (UniProt P08603); test: SPR; human FH conjugated to a CM5 chip; untagged CspZ treated with 100 uM EDTA and dialysed against PBS, one concentration (2 uM in methods and legend, 1 uM in the table's footnote), flow rate 10 ul/min, 25 C, Biacore T200, 1:1 Langmuir model
[7] = target: human complement factor H (human) (UniProt P08603); test: SPR; human FH conjugated to a CM5 chip; untreated untagged CspZ flowed in PBS at 10 μl/min, 25 °C; Biacore T200; 1:1 Langmuir model
[8] = target: human factor H (human) (UniProt P08603); test: SPR; human FH conjugated to a CM5 chip; untagged CspZ treated with 100 uM EDTA and dialysed against PBS, one concentration (2 uM in methods and legend, 1 uM in the table's footnote), flow rate 100 ul/min, 25 C, Biacore T200, 1:1 Langmuir model
[9] = target: human complement factor H (human) (UniProt P08603); test: SPR; human FH conjugated to a CM5 chip; EDTA-treated, PBS-dialysed untagged CspZ then incubated with 100 μM zinc, flowed in zinc-treated PBS (100 μM) at 10 μl/min, 25 °C; 1:1 Langmuir model
[10] = target: human factor H (human) (UniProt P08603); test: SPR; human FH conjugated to a CM5 chip; EDTA-treated, PBS-dialysed untagged CspZB31 then treated with 100 uM zinc (EDTA-Zn), one concentration (2 uM in methods and legend, 1 uM in the table's footnote), flow rate 100 ul/min, 25 C, Biacore T200, 1:1 Langmuir model
[11] = target: human factor H (human) (UniProt P08603); test: SPR; human FH conjugated to a CM5 chip; EDTA-treated, PBS-dialysed untagged CspZB31 then treated with 100 uM zinc (EDTA-Zn), one concentration (2 uM in methods and legend, 1 uM in the table's footnote), flow rate 30 ul/min, 25 C, Biacore T200, 1:1 Langmuir model
[12] = target: human factor H (human) (UniProt P08603); test: SPR; human FH conjugated to a CM5 chip; EDTA-treated, PBS-dialysed untagged CspZB31 then treated with 100 uM zinc (EDTA-Zn), one concentration (2 uM in methods and legend, 1 uM in the table's footnote), flow rate 10 ul/min, 25 C, Biacore T200, 1:1 Langmuir model

Substance | Kd [1] | koff [1] | kon [1] | Kd [2] | koff [2] | kon [2] | Kd [3] | koff [3] | kon [3] | Kd [4] | koff [4] | kon [4] | Kd [5] | koff [5] | kon [5] | Kd [6] | koff [6] | kon [6] | Kd [7] | koff [7] | also measured
CspZ from Borrelia afzelii VS461, untagged (natural protein) | 340 nM | 0.003 s⁻¹ | 10500 M⁻¹ s⁻¹ | 430 nM | 0.003 s⁻¹ | 9160 M⁻¹ s⁻¹ | 470 nM | 0.0045 s⁻¹ | 10600 M⁻¹ s⁻¹ | 380 nM | 0.004 s⁻¹ | 10800 M⁻¹ s⁻¹ | 370 nM | 0.004 s⁻¹ | 10800 M⁻¹ s⁻¹ | 480 nM | 0.004 s⁻¹ | 10700 M⁻¹ s⁻¹ | 370 nM | 0.0034 s⁻¹ | kon [7]: 9420 M⁻¹ s⁻¹; Kd [8]: 110 nM; koff [8]: 0.004 s⁻¹; kon [8]: 11100 M⁻¹ s⁻¹
CspZ from Borrelia burgdorferi B31, untagged (natural protein) | 250 nM | 0.017 s⁻¹ | 69200 M⁻¹ s⁻¹ | 3730 nM | 0.021 s⁻¹ | 5790 M⁻¹ s⁻¹ | 3050 nM | 0.012 s⁻¹ | 4370 M⁻¹ s⁻¹ | 270 nM | 0.017 s⁻¹ | 63200 M⁻¹ s⁻¹ | 230 nM | 0.016 s⁻¹ | 68800 M⁻¹ s⁻¹ | 3370 nM | 0.012 s⁻¹ | 4560 M⁻¹ s⁻¹ | 340 nM | 0.021 s⁻¹ | Kd [9]: 680 nM; koff [9]: 0.035 s⁻¹; kon [9]: 51200 M⁻¹ s⁻¹; Kd [10]: 660 nM; koff [10]: 0.044 s⁻¹; kon [10]: 66600 M⁻¹ s⁻¹; Kd [11]: 570 nM; koff [11]: 0.034 s⁻¹; kon [11]: 61700 M⁻¹ s⁻¹; Kd [12]: 620 nM; koff [12]: 0.037 s⁻¹; kon [12]: 60900 M⁻¹ s⁻¹; kon [7]: 66600 M⁻¹ s⁻¹; Kd [8]: 3670 nM; koff [8]: 0.017 s⁻¹; kon [8]: 4830 M⁻¹ s⁻¹
CspZ from Borrelia burgdorferi B408, untagged (natural protein) | 540 nM | 0.006 s⁻¹ | 13200 M⁻¹ s⁻¹ | 480 nM | 0.006 s⁻¹ | 13600 M⁻¹ s⁻¹ | 490 nM | 0.0071 s⁻¹ | 13900 M⁻¹ s⁻¹ | 530 nM | 0.007 s⁻¹ | 13600 M⁻¹ s⁻¹ | 550 nM | 0.008 s⁻¹ | 16500 M⁻¹ s⁻¹ | 480 nM | 0.007 s⁻¹ | 15700 M⁻¹ s⁻¹ | 540 nM | 0.0079 s⁻¹ | kon [7]: 14100 M⁻¹ s⁻¹; Kd [8]: 500 nM; koff [8]: 0.008 s⁻¹; kon [8]: 16700 M⁻¹ s⁻¹
